Laboratory results from patent US20180339017A1 (Merck Sharp & Dohme, published 2018).
Read-outs that look alike come from different tables or passages of the source. Starred links: 1 amine or outer side, 2 acyl side, 3 side chain; linkers in the order of their positions; H or OH if unused. Non-standard residues stand in square brackets, D forms with d. Groups on a side chain read outwards from the residue. No end group written: not given here. *: point of attachment. γGlu = O=C(O)[C@H](CCC(=O)[*:2])N[*:1]; Palmitoyl = CCCCCCCCCCCCCCCC(=O)*

Legend:
Experiment in all cases: cell-based or functional assay
human GLP-1 receptor [1] = target: T1, human GLP-1 receptor (human, UniProt P43220 24-463)
human glucagon receptor [2] = target: T2, human glucagon receptor (human, UniProt P47871 26-477)
human GLP-1 receptor [3] = target: T1, human GLP-1 receptor; remark: listed apart in the source
human glucagon receptor [4] = target: T2, human glucagon receptor; remark: listed apart in the source

T2 sequence (P47871 26-477): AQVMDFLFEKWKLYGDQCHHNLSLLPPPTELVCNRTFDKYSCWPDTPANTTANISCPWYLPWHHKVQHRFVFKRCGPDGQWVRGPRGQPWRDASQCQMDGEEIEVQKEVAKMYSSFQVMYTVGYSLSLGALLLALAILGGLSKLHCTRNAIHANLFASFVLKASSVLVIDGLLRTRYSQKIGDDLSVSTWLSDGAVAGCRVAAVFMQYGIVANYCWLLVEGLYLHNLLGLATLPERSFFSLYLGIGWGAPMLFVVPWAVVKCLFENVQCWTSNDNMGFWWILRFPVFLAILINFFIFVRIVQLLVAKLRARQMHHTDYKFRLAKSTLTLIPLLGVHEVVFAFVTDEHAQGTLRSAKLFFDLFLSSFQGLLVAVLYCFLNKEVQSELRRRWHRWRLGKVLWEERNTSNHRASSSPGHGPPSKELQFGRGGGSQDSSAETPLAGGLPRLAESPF

HSQGTFTSDYSKYLDSRRAHDFVQWLLNT-NH2 [PD29]
EC50 hGLP1R (cAMP activity assay) (human GLP-1 receptor [1]): 0.02 nM | EC50 hGCGR (cAMP activity assay) (human glucagon receptor [2]): 0.02 nM | EC50 hGLP1 (cAMP activity assay) (human GLP-1 receptor [3]): 0.02 nM | EC50 hGCGR (cAMP activity assay) (human glucagon receptor [4]): 0.02 nM

B1: TP534 (peptide)
peptide: H[dS]QGTFTSDK([γGlu-γGlu-Palmitoyl])SKYLDNKRAQDFVQWLMQT-NH2
modifications: N-terminus assumed
SMILES: CCCCCCCCCCCCCCCC(=O)N[C@@H](CCC(=O)N[C@@H](CCC(=O)NCCCC[C@H](NC(=O)[C@H](CC(=O)O)NC(=O)[C@H](CO)NC(=O)[C@@H](NC(=O)[C@H](Cc1ccccc1)NC(=O)[C@@H](NC(=O)CNC(=O)[C@H](CCC(N)=O)NC(=O)[C@@H](CO)NC(=O)[C@@H](N)Cc1c[nH]cn1)[C@@H](C)O)[C@@H](C)O)C(=O)N[C@@H](CO)C(=O)N[C@@H](CCCCN)C(=O)N[C@@H](Cc1ccc(O)cc1)C(=O)N[C@@H](CC(C)C)C(=O)N[C@@H](CC(=O)O)C(=O)N[C@@H](CC(N)=O)C(=O)N[C@@H](CCCCN)C(=O)N[C@@H](CCCNC(=N)N)C(=O)N[C@@H](C)C(=O)N[C@@H](CCC(N)=O)C(=O)N[C@@H](CC(=O)O)C(=O)N[C@@H](Cc1ccccc1)C(=O)N[C@H](C(=O)N[C@@H](CCC(N)=O)C(=O)N[C@@H](Cc1c[nH]c2ccccc12)C(=O)N[C@@H](CC(C)C)C(=O)N[C@@H](CCSC)C(=O)N[C@@H](CCC(N)=O)C(=O)N[C@H](C(N)=O)[C@@H](C)O)C(C)C)C(=O)O)C(=O)O
EC50 hGLP1 (cAMP activity assay) (human GLP-1 receptor [3]): 0.02 nM | EC50 hGCGR (cAMP activity assay) (human glucagon receptor [4]): 0.01 nM
